Assay results: the nanobody polyreactivity screen of Harvey et al. (2022)

Experiment: yeast display, Sf9 membrane polyspecificity reagent, FACS + sequencing; frameworks hold sequencing errors
In short: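 Galactose-induced (36–48 hours) yeast carrying a synthetic nanobody display library were exposed to 10% biotinylated, detergent-solubilized Sf9 membrane reagent at 4 °C for 1 hour. FACS followed streptavidin microbead enrichment, using low and high (top ~1%) gates for expression (anti-HA) and reagent binding (streptavidin). Colony PCR, MiSeq 2 × 250 sequencing and CDR-length filtering followed. Labels for polyreactivity reflect the gate of origin.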

Sequence	polyreactivity (PSR sort gate)
QVQLVESGGGLVQAGGSLRLSCAASGSTFEAYAMGWYRQGPGKERELVAAINFTGGRTYYADSVKGRFTISRDNAKNTVYLQMNSLKPEDTAVYYCAARKWGVPYIDNDYWGQGTQVTVSS	low polyreactivity
QVQLVESGGGLVQAGGSLRLSCAASGSTFEDYPLGWYRQAPGKERELVAAISHIGGSTYYADSVKGRFTISRDNAKNTVYLQMNSLKPEDTAVYYCAKGGFSSKFDYWGQGTQVTVSS	low polyreactivity
QVQLVESGGGLVQAGGSLRLSCAASGSTFEIYAMGWYRQAPGKERELVAAISSGGSTNYADSVKGRFTISRDNAKNTVYLQMNSLKPEDTAVYYCVYAIQFDYWGQGTQVTVSS	low polyreactivity
QVQLVESGGGLVQAGGSLRLSCAASGSTFEQYAMGWYRQAPGTERELVASISTGGGRTYYADSVKGRFTISRDNAKYTVYLQMNSLKPEETAVFYCNKRYRGYKTGYSRFDYWVQGTQVTVSS	low polyreactivity
QVQLVESGGGLVQAGGSLRLSCAASGSTFERYVMGWYRQAPGTERELVAAISRSGGTTYYADSVKGRFTISRDNAKNTVYLHMNSLKPEDTAVYYCAARYSVRGSQRPIYYYWGQGTQVTVSS	high polyreactivity
QVQLVESGGGLVQAGGSLRLSCAASGSTFESNAMGWSRPAPGKEREFVAAITSGGSTDYADSVKGRFKISRDNAKNTVYLQMNSLKPEDTAVYYCAKGTFDLHYRKRYNYWGQGTQVTVSS	low polyreactivity
QVQLVESGGGLVQAGGSLRLSCAASGSTFESNAMRWYRQAPGKERELVAAISRGGNTYYADSVKGLFTISRDNAKYTVYLQMHSLKPEDTAVYYCNVDRGNPVPPSEYWGQGTKVTVSS	low polyreactivity
QVQLVESGGGLVQAGGSLRLSCAASGSTFESYDMGWYRQAPGKERELVAAIDWSGGITYYADSVKGRFTISRDNAKNTVYLQMNSLKPEDTAVYYCNAGPYWWYYGEDYWGQGTQVTVSS	low polyreactivity
QVQLVESGGGLVQAGGSLRLSCAASGSTFESYDMGWYRQAPGNERELVAAIDWSGGITYYADSVKGRFTISRDNAKNTVYLQMNSLKPEDTAVYYCNADWFVRYPKRVYWAEYDYWGQGTQVTVSS	low polyreactivity
QVQLVESGGGLVQAGGSLRLSCAASGSTFETNAMGWYRPAPGKERELVAAIRWSTGNTYYADSVKGRFTISRDNAKNTVYLQMNSLKPEDTEVYYCAAYKGKHYIEGYWGQGTQVTVSS	low polyreactivity
QVQLVESGGGLVQAGGSLRLSCAASGSTFETYAMGWYRQAPGKERELVAVITSDGSTNYADSVKGRFTISRDNAKNTVYLQMNSLKPEDTAVYYCNADYGFYVPGYPIYWIYEYWGQGTQVTVSS	low polyreactivity
QVQLVESGGGLVQAGGSLRLSCAASGSTFEVNAMGWYRQAPGKERELVATITRSGGSTYYADSVKGRFTISRDNAKNTVYLQMNSLKPEDTAVYYCNAMWELKWGQGTQVTVSS	low polyreactivity
QVQLVESGGGLVQAGGSLRLSCAASGSTFEVYTMGWYRQAAGKERELVADITWSGGNTYYADSVKGRFTISRDNAKNTVYLQMNSLKPEDTAVYYCAADYYHKTVYWYDYWGQGTQVTVSS	low polyreactivity
QVQLVESGGGLVQAGGSLRLSCAASGSTFEWYTMGWYRQAPGKERELVAAINGGGSTKYADSVKGRFTISRDNAKKTVYLQMNSLKPEDTAVYYCNLKYGMYWGQGTQVTVSS	high polyreactivity
QVQLVESGGGLVQAGGSLRLSCAASGSTFEYNAMGWYRQAPGKERELVASSTNYADSVKGRFTISRDNAKNTVYLQMNSLKPDDTEVYYCARDRYYTREWYWYRHDHWGQGTQVTVSS	low polyreactivity
QVQLVESGGGLVQAGGSLRLSCAASGSTFEYYAMGSYRQAPGKERELVATISIDGRTNYADSVKGRFTISRDNAKNTVYLQMNSLKPEDTAVYYCAARPYWRQRYDYWGQGTQVTVSS	low polyreactivity
QVQLVESGGGLVQAGGSLRLSCAASGSTFEYYAMGWYRQAPGKERELVAAITGSGDNTYYADSVKGRFTISRDNAKNTVYLQMNSLKPEDTAVYYCAATMRVKGQYGRMYYWGQGTQVTVSS	high polyreactivity
QVQLVESGGGLVQAGGSLRLSCAASGSTFEYYAMGWYRQAPGKERELVAAITRSGSRTRYADSVKGRFTISRDNAKNTVYLQMNSLKPEDTAVYYCARLSSARYPFDSWGQGTQVTVSS	high polyreactivity
QVQLVESGGGLVQAGGSLRLSCAASGSTFEYYAMVWYRQAAGKERELVDRINWSGGSTYYADSVKGRFTISRDNAKNTVYLQMNSLKPEDTAVYYCNRKLTRFTCFPLAYWGQGTQVTVSS	low polyreactivity
QVQLVESGGGLVQAGGSLRLSCAASGSTFFANVMGWYRQAPGKEREFVAAINYRTGSTHYSDSVKGRFTISRDNAKNTVYLQMNSLKPEDTAVYYCAVYYQYTDVYQYSGYSVRYDYWGQGTQVTVSS	low polyreactivity
QVQLVESGGGLVQAGGSLRLSCAASGSTFFDYAMGWYRQAPGKERELVAVISDGGTTTYADSVKGRFTISRDNAKNTVYLQMNSLKPEDTAVYYCAAENQDGLLVILGGYGYWGQGTQVTVSS	low polyreactivity
QVQLVESGGGLVQAGGSLRLSCAASGSTFFEYAMGWYRQAPGKVREFVAGISWSGGITYYADSVKGRFTISRDNAKNTVYLQMNSLKPEDTAVYYCATAGGDWYGVDYWGQGTQVTVSS	low polyreactivity

Sequence	polyreactivity (PSR sort gate)
QVQLVESGGGLVQAGGSLRLSCAASGSTFFEYTMGWYRQAPGKEREFVADIRGRDGSTSYADSVKGRFTISRDNAKNTVYLQMNSLKPEDTAVYYCNADVTRWTRSPWPYTYDYWGQGTQVTVSS	low polyreactivity
QVQLVESGGGLVQAGGSLRLSCAASGSTFFFNAMGWYRQAPGKERELVAAITGRSGSTYYADSVKGRFTISRDNAKNTVYIQMNSLKPEDTAVYYCAADYVFVATPLRYDYWGQGTQVTVSS	low polyreactivity
QVQLVESGGGLVQAGGSLRLSCAASGSTFFGNAMGWYIQAPGKERELVAAIRFSGVGTYYADSVKGRFTISRDNAKNTVYLQLNSLKPEYTEVFYCAAESYYKYYWGQGTQVTVSS	low polyreactivity
QVQLVESGGGLVQAGGSLRLSCAASGSTFFGNAMGWYRQAPGKERELVAAITTGSGRTYYADSVKGRFTISRDNAKNTVYLQMNSLKPEDTAVYYCAARFSERVYVVPFGYWGQGTQVTVSS	high polyreactivity
QVQLVESGGGLVQAGGSLRLSCAASGSTFFGNTMGWYRQAPGKERELVAAITYRGSTYYADSVKGRFTISRDNAKNTVYLQMNSLKPEDTAVYYCAADGRWYNSESEYDYWGQGTQVTVSS	low polyreactivity
QVQLVESGGGLVQAGGSLRLSCAASGSTFFHNAMGWYRQAPGKERELVAAINWNGGSTYYADSVKGRFTISRDNAKNTVYLQMNSLKPEDTAVYYCAADIYTYLGAYYIGYYWGQGTQVTVSS	low polyreactivity
QVQLVESGGGLVQAGGSLRLSCAASGSTFFHYVMGWYRQAPGKERELVAAIRWSGGRTRYADSVKGRFTISRDNAKNTVYLQMNSLKPEDTAVYYCAAYRLSKPFYKYDYWGQGTQVTVSS	high polyreactivity
QVQLVESGGGLVQAGGSLRLSCAASGSTFFLYAMGWYRQAPGKERELVAAISTTGGSTNYADSVKGRFTISRDNAKNTVYLQMNSLKPEDTAVYYCAAGPSAQSIYDHWGQGTQVTLSS	low polyreactivity
QVQLVESGGGLVQAGGSLRLSCAASGSTFFLYAMGWYRQAPGKERELVAAITYTDGDTYYADSVKGRFTISRDNAKNTVYLQMNSLKPEDTAVYYCAAYRFPYFPSIAYYYTYYSWGQGTQVTVSS	low polyreactivity
QVQLVESGGGLVQAGGSLRLSCAASGSTFFRNAMGWYRQAPGKERELVASITSGGNTKYADSVKGRFTISRDNAKNTVYLQMNSLKPEDTAVYYCAALFYHFARYSRLYNYWGQGTQVTVSS	low polyreactivity
QVQLVESGGGLVQAGGSLRLSCAASGSTFFRYAMGWNRQAPGKERELVATITGGGRTNYADSVKGRFTISRDNAKNTVYLQMNTLKPEDTAVYYCAAYGYVWALRLRYVTYYYWGQGTQVTVSS	high polyreactivity
QVQLVESGGGLVQAGGSLRLSCAASGSTFFSYAMGWYRQAPGKDRELVAAISNSGGTTYYADSVKGRFTISRDNAKNTVYLQMNSLKPEDTAVYYSATRARYVGGYKYNYWGQGTQVTVSS	high polyreactivity
QVQLVESGGGLVQAGGSLRLSCAASGSTFFSYAMGWYRQAPGKERELVAAISNTGGTHYADSVKGRFTISRDNAKNTVYLQMNSLKPEDTAVFYCAADGWYYIGPFSVYSSFTSDYWGQGTQLTVSS	low polyreactivity
QVQLVESGGGLVQAGGSLRLSCAASGSTFFTYAMGWYRQAPGKERELVAAITRGGSSYYADSVKGRFTISRDNAKNTVYLLMNSLKPEDTAVYDCAARVSYRYGYWGQGTQVTVSS	high polyreactivity
QVQLVESGGGLVQAGGSLRLSCAASGSTFFVNTMGWYRQAPGKERELVAAIRRRGGSTYYADSVKGRFTISRDNAKNTVYLQMNSLIPEDTAVYYCAADSYSRYYYWGQGTQVTVSS	high polyreactivity
QVQLVESGGGLVQAGGSLRLSCAASGSTFFVYAMGWYRQAPGKERELVATISSAASTYYADSVKGRFTISRDNAKNTVYLQMNSLKPEDTAVYYCAAGYFIRTRSRYRYDYWGQGTQVTVSS	high polyreactivity
QVQLVESGGGLVQAGGSLRLSCAASGSTFFYNAMGWYRQAPGKERELVAAITYRGGRTYYADSVKGRFTISRDIAKNTVYLQMKSLNPEDTSVYYCHAYPLYRVPDRLVVSDGNYWGQGTQVTVSS	low polyreactivity
QVQLVESGGGLVQAGGSLRLSCAASGSTFFYYAMGLYRQAPGKERELVADITSSGGRTYYADSVKGRFTISRDNAKNTVYLQMNSLKPEDTAVYYCAARDYRQSRYEYWGQGTQVTVSS	high polyreactivity
QVQLVESGGGLVQAGGSLRLSCAASGSTFFYYAMGWYRQAPGKERELVAAITSSGGRTYYADSVKGRFTISRDNAKITVYLQMNSLKPEDTAVYYCAARDYRQSRYEYWGQGTQVTVSS	high polyreactivity
QVQLVESGGGLVQAGGSLRLSCAASGSTFFYYDMGWYRQAPGKERELVAAITSGGSTYYADSVKGLFTISRDNAKNTVYLHMNSLKPEDTAVYYCNAESYFWDFYDYDHWGQGTQVTVSS	low polyreactivity
QVQLVESGGGLVQAGGSLRLSCAASGSTFGAYAMGWYRQAPGKERELVAVINSDGSTNYADSVKGRFTISRDNAKHTVYLQMNSLKPEDTAVYYCAKDRTSRGGVPRMNYWGQGTQVTVSS	low polyreactivity
